Reference: EP4636087A1, “ANTI-GPA33 ANTIBODY AND UTILIZATION THEREOF” (Kagoshima University, priority 2022, dated 2024)

T1: human GPA33 recombinant protein (C-terminal His tag fusion protein, abcam) (human, UniProt Q99795 22-235, limits assumed)
T1 construct: Bought recombinant protein (abcam); also called hGPA33
T1 sequence (looked up): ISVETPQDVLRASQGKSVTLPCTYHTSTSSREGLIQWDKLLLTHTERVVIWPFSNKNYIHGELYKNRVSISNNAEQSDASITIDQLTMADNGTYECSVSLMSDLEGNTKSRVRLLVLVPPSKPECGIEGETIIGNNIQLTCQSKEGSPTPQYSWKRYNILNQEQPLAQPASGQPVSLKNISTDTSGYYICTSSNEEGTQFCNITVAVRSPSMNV

T2: mouse GPA33 recombinant protein (C-terminal His tag fusion protein, abcam) (mouse, UniProt Q9JKA5 22-235, limits assumed)
T2 construct: Bought recombinant protein (abcam); also called mGPA33
T2 sequence (looked up): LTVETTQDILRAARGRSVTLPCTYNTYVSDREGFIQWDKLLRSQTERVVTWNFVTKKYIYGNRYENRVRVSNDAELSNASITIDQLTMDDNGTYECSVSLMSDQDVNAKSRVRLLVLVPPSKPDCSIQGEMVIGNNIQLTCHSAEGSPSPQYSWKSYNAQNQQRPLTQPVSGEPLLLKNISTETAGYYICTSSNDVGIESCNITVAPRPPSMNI

T3: human GPA33 expressed on CHO-K1 cells (hGPA33-expressing cells co-expressing GFP) (human, UniProt Q99795 22-319)
T3 construct: whole, on cells; CHO-K1 transfected with an hGPA33 expression vector (ORIGENE) co-expressing GFP
T3 sequence (looked up): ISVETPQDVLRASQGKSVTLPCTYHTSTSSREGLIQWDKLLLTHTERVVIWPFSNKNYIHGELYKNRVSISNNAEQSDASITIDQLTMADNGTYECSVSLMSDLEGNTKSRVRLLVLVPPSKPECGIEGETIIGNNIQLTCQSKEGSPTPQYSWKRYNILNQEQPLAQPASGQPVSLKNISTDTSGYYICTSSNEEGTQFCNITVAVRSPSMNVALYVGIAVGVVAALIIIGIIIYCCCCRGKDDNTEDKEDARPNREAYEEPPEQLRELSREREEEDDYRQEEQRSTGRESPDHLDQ

T4: mouse GPA33 expressed on CHO-K1 cells (mGPA33-expressing cells) (mouse, UniProt Q9JKA5 22-319)
T4 construct: whole, on cells
T4 sequence (looked up): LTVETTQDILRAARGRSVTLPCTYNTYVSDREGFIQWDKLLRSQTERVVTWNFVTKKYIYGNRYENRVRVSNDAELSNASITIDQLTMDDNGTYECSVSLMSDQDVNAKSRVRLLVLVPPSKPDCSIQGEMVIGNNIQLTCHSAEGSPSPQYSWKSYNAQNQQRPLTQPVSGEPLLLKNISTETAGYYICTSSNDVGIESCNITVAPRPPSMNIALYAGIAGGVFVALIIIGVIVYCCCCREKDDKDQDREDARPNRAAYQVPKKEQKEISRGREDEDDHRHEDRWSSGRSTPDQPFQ

T5: human GPA33 expressed on HEK293STF cells (EGFP-human GPA33 expression vector, ORIGENE RG210225) (human, UniProt Q99795 22-319)
T5 sequence (looked up): T3 sequence (looked up)

B1: GPA2RC17-Fc (anti-GPA33 single-chain Fv-Fc, scFv linked to human IgG1-Fc) (Fc fusion)
chain: QMQLVQSGGGLVKPGGSLRLSCAASGFTFSSYNMNWVRQAPGKGLEWVSSISSSGDFMYYADSVKGRFTISRDNAKNSLYLQMSSLRAEDTAVYYCAREGPGTPFDYWGQGTLVTVSSGGGGSGGGGSGSTGSAIQLTQSPSSLSASVGDRVTITCRASQSISSFLNWYQHKPGKAPKLLIYVASSLQSGVPSRFSGSGSGTDFTLTISSLQPEDFATYYCQQSHNTPYTFGQGTKLEIKPKSSDKTHTCPPCPAPEAEGAPSVFLFPPKPKDTLMISRTPEVTCVVVDVSHEDPEVKFNWYVDGVEVHNAKTKPREEQYNSTYRVVSVLTVLHQDWLNGKEYKCAVSNKALPASIEKTISKAKGQPREPQVYTLPPSREEMTKNQVSLTCLVKGFYPSDIAVEWESNGQPENNYKTTPPVLDSDGSFFLYSKLTVDKSRWQQGNVFSCSVMHEALHNHYTQKSLSLSPGK
notes: also called 2RC17 scFv-Fc; 2RC17-scFv-Fc
B2: GPA2RC28-Fc (anti-GPA33 single-chain Fv-Fc, scFv linked to human IgG1-Fc) (Fc fusion)
chain: EVQLVESGGGLVKPGGSLRLSCAASGFTFSSYSMNWVRQAPGKGLEWVSSISRDSTYIYYADSVKGRFTISRDNAKNSLYLQMNSLRAEDTAVYYCAREGVAGAFDIWGQGTMVTVSSGGGGSGGGGSGSTGSAIQLTQSPSSLSASVGDRVTITCRASQSISSYLNWYQQKPGKAPKLLIYIASSLQSGVPSRFSGSGSGTDFTLTISSLQPEDFATYYCQQSYNTWTFGQGTKVEIKPKSSDKTHTCPPCPAPEAEGAPSVFLFPPKPKDTLMISRTPEVTCVVVDVSHEDPEVKFNWYVDGVEVHNAKTKPREEQYNSTYRVVSVLTVLHQDWLNGKEYKCAVSNKALPASIEKTISKAKGQPREPQVYTLPPSREEMTKNQVSLTCLVKGFYPSDIAVEWESNGQPENNYKTTPPVLDSDGSFFLYSKLTVDKSRWQQGNVFSCSVMHEALHNHYTQKSLSLSPGK
notes: also called 2RC28 scFv-Fc; 2RC28 single-chain Fv-Fc
B3: GPA33-2RC28 cloned scFv phage (scFv)
scFv: EVQLVESGGGLVKPGGSLRLSCAASGFTFSSYSMNWVRQAPGKGLEWVSSISRDSTYIYYADSVKGRFTISRDNAKNSLYLQMNSLRAEDTAVYYCAREGVAGAFDIWGQGTMVTVSSGGGGSGGGGSGSTGSAIQLTQSPSSLSASVGDRVTITCRASQSISSYLNWYQQKPGKAPKLLIYIASSLQSGVPSRFSGSGSGTDFTLTISSLQPEDFATYYCQQSYNTWTFGQGTKVEIK
B4: G17-R1CRD-His (other)
chain: QMQLVQSGGGLVKPGGSLRLSCAASGFTFSSYNMNWVRQAPGKGLEWVSSISSSGDFMYYADSVKGRFTISRDNAKNSLYLQMSSLRAEDTAVYYCAREGPGTPFDYWGQGTLVTVSSGGGGSGGGGSGSTGSAIQLTQSPSSLSASVGDRVTITCRASQSISSFLNWYQHKPGKAPKLLIYVASSLQSGVPSRFSGSGSGTDFTLTISSLQPEDFATYYCQQSHNTPYTFGQGTKLEIKGGSGGSISAEGSQACAKGCELCSEVNGCLKCSPKLFILLERNDIRQVGVCLPSCPPGYFDARNPDMNKCIKCKIEHCEACFSHNFCTKCKEGLYLHKGRCYPACPEGSSAANGTMECSSPAHHHHHHGA
B5: G17-R1CRD-GS3-Fcm (Fc fusion)
chain: QMQLVQSGGGLVKPGGSLRLSCAASGFTFSSYNMNWVRQAPGKGLEWVSSISSSGDFMYYADSVKGRFTISRDNAKNSLYLQMSSLRAEDTAVYYCAREGPGTPFDYWGQGTLVTVSSGGGGSGGGGSGSTGSAIQLTQSPSSLSASVGDRVTITCRASQSISSFLNWYQHKPGKAPKLLIYVASSLQSGVPSRFSGSGSGTDFTLTISSLQPEDFATYYCQQSHNTPYTFGQGTKLEIKGGSGGSISAEGSQACAKGCELCSEVNGCLKCSPKLFILLERNDIRQVGVCLPSCPPGYFDARNPDMNKCIKCKIEHCEACFSHNFCTKCKEGLYLHKGRCYPACPEGSSAANGTMECSSGGGGSGGGGSGGGGSEPKSADKTHTCPPCPAPEAEGAPSVFLFPPKPKDTLMISRTPEVTCVVVDVSHEDPEVKFNWYVDGVEVHNAKTKPREEQYNSTYRVVSVLTVLHQDWLNGKEYKCAVSNKALPASIEKTISKAKGQPREPQVYTLPPSREEMTKNQVSLTCLVKGFYPSDIAVEWESNGQPENNYKTTPPVLDSDGSFFLYSKLTVDKSRWQQGNVFSCSVMHEALHNHYTQKSLSLSPGK
B6: G17-R4CRD-His (other)
chain: QMQLVQSGGGLVKPGGSLRLSCAASGFTFSSYNMNWVRQAPGKGLEWVSSISSSGDFMYYADSVKGRFTISRDNAKNSLYLQMSSLRAEDTAVYYCAREGPGTPFDYWGQGTLVTVSSGGGGSGGGGSGSTGSAIQLTQSPSSLSASVGDRVTITCRASQSISSFLNWYQHKPGKAPKLLIYVASSLQSGVPSRFSGSGSGTDFTLTISSLQPEDFATYYCQQSHNTPYTFGQGTKLEIKGGSGGSGGNCTGCIICSEENGCSTCQQRLFLFIRREGIRQYGKCLHDCPPGYFGIRGQEVNRCKKCGATCESCFSQDFCIRCKRQFYLYKGKCLPTCPPGTLAHQNTRECQGHHHHHHGA
B7: 2RC28-Cys anti-GPA33 scFv (Cys-containing sequence, His tag and Myc tag at the C-terminal side), expressed in Escherichia coli (scFv)
scFv: EVQLVESGGGLVKPGGSLRLSCAASGFTFSSYSMNWVRQAPGKGLEWVSSISRDSTYIYYADSVKGRFTISRDNAKNSLYLQMNSLRAEDTAVYYCAREGVAGAFDIWGQGTMVTVSSGGGGSGGGGSGSTGSAIQLTQSPSSLSASVGDRVTITCRASQSISSYLNWYQQKPGKAPKLLIYIASSLQSGVPSRFSGSGSGTDFTLTISSLQPEDFATYYCQQSYNTWTFGQGTKVEIKAACTSAHHHHHHGAAEQKLISEEDLNGAA
notes: Periplasmic expression in E. coli HB2151, purified on a His tag column; also called 2RC28 scFv; anti-GPA33 single chain Fv-His
B8: G17-R2CRD-His (other)
chain: QMQLVQSGGGLVKPGGSLRLSCAASGFTFSSYNMNWVRQAPGKGLEWVSSISSSGDFMYYADSVKGRFTISRDNAKNSLYLQMSSLRAEDTAVYYCAREGPGTPFDYWGQGTLVTVSSGGGGSGGGGSGSTGSAIQLTQSPSSLSASVGDRVTITCRASQSISSFLNWYQHKPGKAPKLLIYVASSLQSGVPSRFSGSGSGTDFTLTISSLQPEDFATYYCQQSHNTPYTFGQGTKLEIKGGGGSGGGGSGGGGSNPICKGCLSCSKDNGCSRCQQKLFFFLRREGMRQYGECLHSCPSGYYGHRAPDMNRCARCRIENCDSCFSKDFCTKCKVGFYLHRGRCFDECPDGFAPLEETMECVEGHHHHHHGA
B9: R1CRD-G17-His (other)
chain: ISAEGSQACAKGCELCSEVNGCLKCSPKLFILLERNDIRQVGVCLPSCPPGYFDARNPDMNKCIKCKIEHCEACFSHNFCTKCKEGLYLHKGRCYPACPEGSSAANGTMECSSGGGGSGGGGSGGGGSQMQLVQSGGGLVKPGGSLRLSCAASGFTFSSYNMNWVRQAPGKGLEWVSSISSSGDFMYYADSVKGRFTISRDNAKNSLYLQMSSLRAEDTAVYYCAREGPGTPFDYWGQGTLVTVSSGGGGSGGGGSGSTGSAIQLTQSPSSLSASVGDRVTITCRASQSISSFLNWYQHKPGKAPKLLIYVASSLQSGVPSRFSGSGSGTDFTLTISSLQPEDFATYYCQQSHNTPYTFGQGTKLEIKHHHHHHGA
B10: GPA33-2RC17 cloned scFv phage (scFv)
scFv: QMQLVQSGGGLVKPGGSLRLSCAASGFTFSSYNMNWVRQAPGKGLEWVSSISSSGDFMYYADSVKGRFTISRDNAKNSLYLQMSSLRAEDTAVYYCAREGPGTPFDYWGQGTLVTVSSGGGGSGGGGSGSTGSAIQLTQSPSSLSASVGDRVTITCRASQSISSFLNWYQHKPGKAPKLLIYVASSLQSGVPSRFSGSGSGTDFTLTISSLQPEDFATYYCQQSHNTPYTFGQGTKLEIK
notes: also called G17

Tests used:
[1] = biological target: T1, human GPA33 recombinant protein …; assay: SPR, Biacore T200, 25°C, GPA33-His amine-coupled on CM5, scFv-Fc as analyte, 1:1 binding model
[2] = biological target: T2, mouse GPA33 recombinant protein …; assay: as above
[3] = biological target: T3, human GPA33 expressed on CHO-K1 cells …; assay: FACS, cloned phage on GPA33-expressing CHO-K1 cells
[4] = biological target: T4, mouse GPA33 expressed on CHO-K1 cells …; assay: as above
[5] = biological target: T5, human GPA33 expressed on HEK293STF …; assay: cell-based or functional assay
[6] = biological target: T3, human GPA33 expressed on CHO-K1 cells …; assay: FACS, 0.1 µg scFv on GPA33-expressing CHO-K1 cells, anti-His-biotin and SA-PE detection
[7] = biological target: T4, mouse GPA33 expressed on CHO-K1 cells …; assay: as above

Row | Binder | EC50(GPA33) (nM), Wnt/β-catenin reporter in 293STF cells expressing GPA33 [5] [nM] | EC50(MOG)/ EC50(GPA33) [5] | further results
1 | B1 | – | – | Kd [1]: 1.4 nM; Kd [2]: 3.8 nM
2 | B2 | – | – | Kd [1]: 5.7 nM; Kd [2]: 6.9 nM
3 | B3 | – | – | binding result [3]: binds; binding result [4]: binds
4 | B4 | 0.031 | 968 | –
5 | B5 | 0.054 | > 556 | –
6 | B6 | 0.008 | 348 | –
7 | B7 | – | – | binding result [6]: binds; binding result [7]: binds
8 | B8 | 0.021 | 15.2 | –
9 | B9 | 0.027 | 307 | –
10 | B10 | – | – | binding result [3]: binds; binding result [4]: binds
